Values joined by “and” are separate entries in the source; they are usually repeats but may differ in a detail not shown here. Equal entries are not always repeated.
Key:
[1] = biological target: T1, Human CLEC12A-His (recombinant, K244 WT) (human, UniProt Q5QGZ9 65-265); assay: SPR, two-state fit; control sample
T1 construct: Made in house (Dragonfly Tx); also called hCLEC12A; hCLEC12A-His; not shown: His tag
T1 sequence: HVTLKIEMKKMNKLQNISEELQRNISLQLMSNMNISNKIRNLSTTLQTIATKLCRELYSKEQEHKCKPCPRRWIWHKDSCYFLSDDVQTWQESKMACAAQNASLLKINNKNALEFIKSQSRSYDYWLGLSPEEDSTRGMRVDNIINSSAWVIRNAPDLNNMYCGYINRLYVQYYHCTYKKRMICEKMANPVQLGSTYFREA

[2] = biological target: T1, Human CLEC12A-His (recombinant, K244 WT); assay: SPR, two-state fit (ka1); after 4 wks 40C in CST pH 7.0
[3] = biological target: T2, mFc-hNKG2D (recombinant mFc-tagged human NKG2D dimer) (human, UniProt P26718 73-216); assay: SPR; control sample
T2 construct: extracellular domain; Made in house; not shown: mouse Fc tag
T2 sequence (looked up): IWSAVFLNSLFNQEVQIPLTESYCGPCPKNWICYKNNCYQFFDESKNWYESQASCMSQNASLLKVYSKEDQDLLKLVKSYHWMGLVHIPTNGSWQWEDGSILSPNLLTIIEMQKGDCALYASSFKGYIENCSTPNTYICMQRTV

[4] = biological target: T3, Human CD16a V158 (FcγRIIIa V158) (human, UniProt P08637 17-208, biotinylated); assay: SPR; control sample
T3 construct: Bought recombinant receptor; also called hCD16aV; hFcγRIIIa V158

[5] = biological target: T1, Human CLEC12A-His (recombinant, K244 WT); assay: SPR, two-state fit (ka1); after pH 8, 40C, 2 wks
[6] = biological target: T2, mFc-hNKG2D (recombinant mFc-tagged …); assay: SPR; after pH 8, 40C, 2 wks (n = 2)
[7] = biological target: T2, mFc-hNKG2D (recombinant mFc-tagged …); assay: SPR 37C, mFc-hNKG2D captured, 1:1 kinetic fit
[8] = biological target: T4, recombinant human CD16a F158 (human, UniProt P08637 17-208); assay: SPR 25C, steady state, average
T4 construct: also called FcγRIIIa F158

[9] = biological target: T5, Human CD16b (human, UniProt O75015 17-200, limits assumed, biotinylated); assay: SPR, steady state fit; average for AB0192
T5 construct: Bought recombinant receptor; also called hFcγRIIIb

[10] = biological target: T6, Human CLEC12A-His (human, UniProt Q5QGZ9 65-265); assay: SPR, untreated CLEC12A; average of 3 replicates
T6 construct: Recombinant soluble protein made in house; also called hCLEC12A-His; hCLEC12A; not shown: His tag
T6 sequence: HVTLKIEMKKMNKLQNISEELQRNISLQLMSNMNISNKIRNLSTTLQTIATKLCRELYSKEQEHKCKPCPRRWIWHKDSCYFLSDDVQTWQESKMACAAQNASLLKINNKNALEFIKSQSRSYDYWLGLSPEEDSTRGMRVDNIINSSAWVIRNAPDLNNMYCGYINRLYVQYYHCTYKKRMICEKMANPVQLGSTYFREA

[11] = biological target: T7, Cynomolgus CD16 (cynomolgus monkey, UniProt Q8SPW2 17-208, biotinylated); assay: SPR, steady state fit
T7 construct: Bought recombinant receptor; also called cFcγRIII; Cynomolgus FcγRIII

[12] = biological target: T8, Human CD16a F158 (human, UniProt P08637 17-208, biotinylated); assay: SPR, steady state fit
T8 construct: Bought recombinant receptor; also called hFcγRIIIa F158

[13] = biological target: T9, Cynomolgus CD64 (cynomolgus monkey, UniProt A0A2K5U901 33-309, Probably biotinylated for capture, as in the sister examples (p-1094).); assay: SPR, summary of FcγR affinities
T9 construct: Bought recombinant receptor; also called cFcγRI; Cynomolgus CD64 (FcγRI); not shown: The vendor's biotinylation and purification tag

[14] = biological target: T10, Human CD64 (human, UniProt P12314 16-288, biotinylated); assay: SPR, summary of FcγR affinities
T10 construct: Bought recombinant receptor; also called hFcγRI; Human CD64 (FcγRI)

[15] = biological target: T5, Human CD16b; assay: SPR, summary of FcγR affinities
[16] = biological target: T11, Human CD32a H131 (human, UniProt P12318 36-218, limits assumed, biotinylated); assay: SPR, summary of FcγR affinities
T11 construct: Bought recombinant receptor; also called hFcγRIIa H131
T11 sequence (looked up): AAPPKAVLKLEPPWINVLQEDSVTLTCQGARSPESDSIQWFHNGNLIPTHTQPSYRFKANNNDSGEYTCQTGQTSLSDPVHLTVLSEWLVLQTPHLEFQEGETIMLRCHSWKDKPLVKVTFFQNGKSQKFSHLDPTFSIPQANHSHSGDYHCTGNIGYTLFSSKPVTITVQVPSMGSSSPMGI

T7 sequence (Q8SPW2 17-208 limits assumed): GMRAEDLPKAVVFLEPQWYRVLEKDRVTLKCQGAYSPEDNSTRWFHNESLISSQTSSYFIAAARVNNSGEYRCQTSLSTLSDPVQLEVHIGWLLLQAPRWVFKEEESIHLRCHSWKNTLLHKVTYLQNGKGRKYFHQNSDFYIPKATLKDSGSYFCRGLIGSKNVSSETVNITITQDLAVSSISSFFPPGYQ
T3 sequence (P08637 17-208 F176V limits assumed): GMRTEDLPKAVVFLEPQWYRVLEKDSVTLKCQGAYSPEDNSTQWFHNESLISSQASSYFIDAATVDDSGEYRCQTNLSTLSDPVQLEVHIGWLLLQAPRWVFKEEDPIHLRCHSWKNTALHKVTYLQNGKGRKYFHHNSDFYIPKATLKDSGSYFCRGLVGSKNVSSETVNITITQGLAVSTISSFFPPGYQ
T8 sequence (P08637 17-208 limits assumed): as the sequence (P08637 17-208 F176V limits assumed) above, with V160F counted along it
T5 sequence (O75015 17-200 limits assumed): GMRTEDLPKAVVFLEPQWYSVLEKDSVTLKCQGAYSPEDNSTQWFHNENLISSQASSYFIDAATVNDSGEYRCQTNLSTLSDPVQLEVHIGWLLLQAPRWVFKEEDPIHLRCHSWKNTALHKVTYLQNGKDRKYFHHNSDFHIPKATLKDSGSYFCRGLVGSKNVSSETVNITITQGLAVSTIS
T10 sequence (P12314 16-288 limits assumed): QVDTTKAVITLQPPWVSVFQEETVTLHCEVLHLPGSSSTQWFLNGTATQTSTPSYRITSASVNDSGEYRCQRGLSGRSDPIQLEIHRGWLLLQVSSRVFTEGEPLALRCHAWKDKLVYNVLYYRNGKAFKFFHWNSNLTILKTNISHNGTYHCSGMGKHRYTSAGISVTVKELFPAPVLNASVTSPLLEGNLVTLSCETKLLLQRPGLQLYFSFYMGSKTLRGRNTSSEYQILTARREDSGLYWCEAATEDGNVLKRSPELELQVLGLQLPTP
T4 sequence (P08637 17-208 limits assumed): as the sequence (P08637 17-208 F176V limits assumed) above, with V160F counted along it
T9 sequence (A0A2K5U901 entry or part of it limits assumed): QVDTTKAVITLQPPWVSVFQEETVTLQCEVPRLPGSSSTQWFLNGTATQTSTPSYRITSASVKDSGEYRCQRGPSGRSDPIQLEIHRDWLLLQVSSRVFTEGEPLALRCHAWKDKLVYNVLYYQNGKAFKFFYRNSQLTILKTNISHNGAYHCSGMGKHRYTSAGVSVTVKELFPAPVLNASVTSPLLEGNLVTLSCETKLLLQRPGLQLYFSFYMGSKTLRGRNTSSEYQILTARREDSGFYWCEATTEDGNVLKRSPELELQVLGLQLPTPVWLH

B1: AB0089 TriNKET (bispecific antibody, human IgG1, kappa)
chain: QLQLQESGPGLVKPSETLSLTCTVSGFSLTNYGLHWIRQPPGKCLEWIGVIWVGGATDYNPSLKSRVTISVDTSKNQFSLKLSSVQAADTAVYYCAKGDYGDTLDYWGQGTLVTVSSGGGGSGGGGSGGGGSGGGGSDIQMTQSPSSLSASVGDRVTITCHASQNINFWLSWYQQKPGKAPKLLIYEASNLHTGVPSRFSGSGSGTDFTLTISSLQPEDFATYYCQQSHSYPLTFGCGTKLEIKGSDKTHTCPPCPAPELLGGPSVFLFPPKPKDTLMISRTPEVTCVVVDVSHEDPEVKFNWYVDGVEVHNAKTKPREEQYNSTYRVVSVLTVLHQDWLNGKEYKCKVSNKALPAPIEKTISKAKGQPREPRVYTLPPCRDELTKNQVSLTCLVKGFYPSDIAVEWESNGQPENNYKTTPPVLVSDGSFTLYSKLTVDKSRWQQGNVFSCSVMHEALHNHYTQKSLSLSPG
heavy: EVQLVESGGGLVKPGGSLRLSCAASGFTFSSYSMNWVRQAPGKGLEWVSSISSSSSYIYYADSVKGRFTISRDNAKNSLYLQMNSLRAEDTAVYYCARGAPIGAAAGWFDPWGQGTLVTVSSASTKGPSVFPLAPSSKSTSGGTAALGCLVKDYFPEPVTVSWNSGALTSGVHTFPAVLQSSGLYSLSSVVTVPSSSLGTQTYICNVNHKPSNTKVDKKVEPKSCDKTHTCPPCPAPELLGGPSVFLFPPKPKDTLMISRTPEVTCVVVDVSHEDPEVKFNWYVDGVEVHNAKTKPREEQYNSTYRVVSVLTVLHQDWLNGKEYKCKVSNKALPAPIEKTISKAKGQPREPQVCTLPPSRDELTENQVSLTCLVKGFYPSDIAVEWESNGQPENNYKTTPPVLDSDGSFFLYSWLTVDKSRWQQGNVFSCSVMHEALHNHYTQKSLSLSPG
light: DIQMTQSPSSVSASVGDRVTITCRASQGISSWLAWYQQKPGKAPKLLIYAASSLQSGVPSRFSGSGSGTDFTLTISSLQPEDFATYYCQQGVSFPRTFGGGTKVEIKRTVAAPSVFIFPPSDEQLKSGTASVVCLLNNFYPREAKVQWKVDNALQSGNSQESVTEQDSKDSTYSLSSTLTLSKADYEKHKVYACEVTHQGLSSPVTKSFNRGEC
notes: F3' format heterodimer of three chains; human IgG1 Fc with EW-RVT and Y349C/S354C mutations; also called AB0089 Lot AB0089-002; CLEC12A TriNKET AB0089
[1]
  Kd: 0.9 nM
[2]
  kon: 6.31e+06 M⁻¹ s⁻¹
[3]
  Kd: 881 nM
  koff: 0.143 s⁻¹
  kon: 162000 M⁻¹ s⁻¹
[4]
  Kd: 333 nM
  koff: 0.0277 s⁻¹
  kon: 83100 M⁻¹ s⁻¹
[5]
  kon: 9.93e+06 M⁻¹ s⁻¹
[6]
  Kd: 983 nM
  koff: 0.127 s⁻¹
  kon: 130000 M⁻¹ s⁻¹
[7]
  Kd: 872 nM and 892 nM and 880 nM
  koff: 0.141 s⁻¹ and 0.142 s⁻¹ and 0.146 s⁻¹
  kon: 161000 M⁻¹ s⁻¹ and 159000 M⁻¹ s⁻¹ and 166000 M⁻¹ s⁻¹

B2: F3'-1602 TriNKET (other)
chain: QLQLQESGPGLVKPSETLSLTCTVSGFSLTNYGLHWIRQPPGKCLEWIGVIWSGGKTDYNPSLKSRVTISKDTSKNQFSLKLSSVQAADTAVYYCAKYDYDDSLDYWGQGTLVTVSSGGGGSGGGGSGGGGSGGGGSDIQMTQSPSSLSASVGDRVTITCHASQNINFWLSWYQQKPGKAPKLLIYEASNLHTGVPSRFSGSGSGTRFTLTISSLQPEDIATYYCQQSHSYPLTFGCGTKLEIKGSDKTHTCPPCPAPELLGGPSVFLFPPKPKDTLMISRTPEVTCVVVDVSHEDPEVKFNWYVDGVEVHNAKTKPREEQYNSTYRVVSVLTVLHQDWLNGKEYKCKVSNKALPAPIEKTISKAKGQPREPRVYTLPPCRDELTKNQVSLTCLVKGFYPSDIAVEWESNGQPENNYKTTPPVLVSDGSFTLYSKLTVDKSRWQQGNVFSCSVMHEALHNHYTQKSLSLSPG
heavy: EVQLVESGGGLVKPGGSLRLSCAASGFTFSSYSMNWVRQAPGKGLEWVSSISSSSSYIYYADSVKGRFTISRDNAKNSLYLQMNSLRAEDTAVYYCARGAPIGAAAGWFDPWGQGTLVTVSSASTKGPSVFPLAPSSKSTSGGTAALGCLVKDYFPEPVTVSWNSGALTSGVHTFPAVLQSSGLYSLSSVVTVPSSSLGTQTYICNVNHKPSNTKVDKKVEPKSCDKTHTCPPCPAPELLGGPSVFLFPPKPKDTLMISRTPEVTCVVVDVSHEDPEVKFNWYVDGVEVHNAKTKPREEQYNSTYRVVSVLTVLHQDWLNGKEYKCKVSNKALPAPIEKTISKAKGQPREPQVCTLPPSRDELTENQVSLTCLVKGFYPSDIAVEWESNGQPENNYKTTPPVLDSDGSFFLYSWLTVDKSRWQQGNVFSCSVMHEALHNHYTQKSLSLSPG
light: DIQMTQSPSSVSASVGDRVTITCRASQGISSWLAWYQQKPGKAPKLLIYAASSLQSGVPSRFSGSGSGTDFTLTISSLQPEDFATYYCQQGVSFPRTFGGGTKVEIKRTVAAPSVFIFPPSDEQLKSGTASVVCLLNNFYPREAKVQWKVDNALQSGNSQESVTEQDSKDSTYSLSSTLTLSKADYEKHKVYACEVTHQGLSSPVTKSFNRGEC
notes: CLEC12A scFv-Fc, NKG2D A49MI Fab-Fc, human IgG1 Fc; also called AB0237
[8]
  Kd: 1110 nM

B3: AB0192 TriNKET (other)
chain: EVQLVESGGGVVQPGGSLRLSCAASGFTFNAFGMHWVRQAPGKCLEWVAFISSGSTSIYYANTVKGRFTISRDNSKNTLYLQMNSLRAEDTAVYYCARDGYPTGGAMDYWGQGTSVTVSSGGGGSGGGGSGGGGSGGGGSDIQMTQSPSSLSASVGDRVTITCKASQDIYNYLSWFQQKPGKAPKPLIYRANILVSGVPSRFSGSGSGQDYTFTISSLQPEDIATYYCLQFDAFPFTFGCGTKLEIKGSDKTHTCPPCPAPELLGGPSVFLFPPKPKDTLMISRTPEVTCVVVDVSHEDPEVKFNWYVDGVEVHNAKTKPREEQYNSTYRVVSVLTVLHQDWLNGKEYKCKVSNKALPAPIEKTISKAKGQPREPRVYTLPPCRDELTKNQVSLTCLVKGFYPSDIAVEWESNGQPENNYKTTPPVLVSDGSFTLYSKLTVDKSRWQQGNVFSCSVMHEALHNHYTQKSLSLSPG
heavy: EVQLVESGGGLVKPGGSLRLSCAASGFTFSSYSMNWVRQAPGKGLEWVSSISSSSSYIYYADSVKGRFTISRDNAKNSLYLQMNSLRAEDTAVYYCARGAPIGAAAGWFDPWGQGTLVTVSSASTKGPSVFPLAPSSKSTSGGTAALGCLVKDYFPEPVTVSWNSGALTSGVHTFPAVLQSSGLYSLSSVVTVPSSSLGTQTYICNVNHKPSNTKVDKKVEPKSCDKTHTCPPCPAPELLGGPSVFLFPPKPKDTLMISRTPEVTCVVVDVSHEDPEVKFNWYVDGVEVHNAKTKPREEQYNSTYRVVSVLTVLHQDWLNGKEYKCKVSNKALPAPIEKTISKAKGQPREPQVCTLPPSRDELTENQVSLTCLVKGFYPSDIAVEWESNGQPENNYKTTPPVLDSDGSFFLYSWLTVDKSRWQQGNVFSCSVMHEALHNHYTQKSLSLSPG
light: DIQMTQSPSSVSASVGDRVTITCRASQGISSWLAWYQQKPGKAPKLLIYAASSLQSGVPSRFSGSGSGTDFTLTISSLQPEDFATYYCQQGVSFPRTFGGGTKVEIKRTVAAPSVFIFPPSDEQLKSGTASVVCLLNNFYPREAKVQWKVDNALQSGNSQESVTEQDSKDSTYSLSSTLTLSKADYEKHKVYACEVTHQGLSSPVTKSFNRGEC
notes: the condition stands under assay; also called AB0192 Lot AB0192-005
[9]
  Kd: 6000 nM
[10]
  Kd: 1.65 nM
  koff: 0.00115 s⁻¹
  kon: 698000 M⁻¹ s⁻¹
[11]
  Kd: 203 nM and 205 nM and 204 nM
[12]
  Kd: 773 nM and 634 nM and 693 nM and 620 nM
[13]
  Kd: 1.9 nM
[14]
  Kd: 5.2 nM
[15]
  Kd: 6010 nM
[16]
  Kd: 1010 nM
